Assay: Plasma pharmacokinetics of HHC^MET in Wistar rats
Format: in vivo
Conditions: n=3
Description: This study was performed in order to investigate the plasma pharmacokinetics of HHC^MET in Wistar rats following subcutaneous and intramuscular administration of transient HHC^MET-linker hydrogel prodrug 32 or following subcutaneous or intravenous administration of free HHC^MET. Animals (n=3 per group) received either a single SC injection in the neck region or a single IM injection in the thigh musculature of a formulation of 32 (10 mg/kg HHC^MET equivalents) or a single SC injection in the neck region or IV injection in the tail vein of an HHC^MET formulation (10 mg/kg HHCMet). At selected time points, 200 μL blood were collected in L^1-Heparin tubes and processed to plasma by centrifugation at 3,000 g for 10 minutes at 4° C.
HHC^MET concentrations in rat plasma were determined with an in-house developed sandwich ELISA setup. For capturing HHC^MET, a human CTLA-4 (AA Ala37-Ser160)—Fc Tag fusion protein (Supplier AcroBiosystem, Newark, Del.; USA, catalog no. CT4-H5255) was coated to the ELISA plate wells and read-out was performed via a rabbit anti-camelid VHH antibody conjugated with horseradish peroxidase (supplier Genscript, Piscataway, N.J., USA, catalog no. A01861-200).
Calibration standards of HHC^MET in blank plasma were prepared as follows: thawed L^1-Heparin Wistar rat plasma was homogenized. The free HHC^MET formulation was spiked into blank plasma at concentrations between 96.0 ng/mL and 3.00 ng/mL with additional higher and lower anchor points. These solutions were used for the generation of a calibration curve. Calibration curves were analyzed via a 4-parameter logarithmic fit and 1/Y weighted. Calibration curves were confirmed via separately prepared quality control standards at 10, 40 and 80 ng/mL.

B1: HHC^MET: custom made protein of SEQ ID NO:2, expressed from E. coli; captured by human CTLA-4 and detected with anti-camelid VHH antibody in ELISA (protein)
chain: EVQLVESGGGLVQAGGSLRLSCAASGGTFSFYGMGWFRQAPGKEQEFVADIRTSAGRTYYADSVKGRFTISRDNAKNTVYLQMNSLKPEDTAVYYCAAEMSGISGWDYWGQGTQVTVSSGGGGSGGGSEVQLVESGGGLVQAGGSLRLSCAASGGTFSFYGMGWFRQAPGKEQEFVADIRTSAGRTYYADSVKGRFTISRDNAKNTVYLQMNSLKPEDTAVYYCAAEMSGISGWDYWGQGTQVTVSS
modifications: nanobody
notes: captured by human CTLA-4 and detected with anti-camelid VHH antibody in ELISA
0.25 h, 10 mg/kg HHC^MET (equivalents), subcutaneous
  mean HHC^MET concentration: 2540 ng/mL
0.25 h, 10 mg/kg intravenous
  mean HHC^MET concentration: 17400 ng/mL
1 h, 10 mg/kg HHC^MET (equivalents), subcutaneous
  mean HHC^MET concentration: 5090 ng/mL
1 h, 10 mg/kg intravenous
  mean HHC^MET concentration: 3530 ng/mL
4 h, 10 mg/kg HHC^MET (equivalents), subcutaneous
  mean HHC^MET concentration: 2280 ng/mL
4 h, 10 mg/kg intravenous
  mean HHC^MET concentration: 1720 ng/mL
24 h, 10 mg/kg HHC^MET (equivalents), subcutaneous, LLOQ 3.00 ng/mL
  mean HHC^MET concentration: 2.60 ng/mL
24 h, 10 mg/kg intravenous
  mean HHC^MET concentration: 8.27 ng/mL
32 h, 10 mg/kg HHC^MET (equivalents), subcutaneous, LLOQ 3.00 ng/mL
  mean HHC^MET concentration: <LLOQ
32 h, 10 mg/kg intravenous, LLOQ 3.00 ng/mL
  mean HHC^MET concentration: <LLOQ
48 h, 10 mg/kg HHC^MET (equivalents), subcutaneous, LLOQ 3.00 ng/mL
  mean HHC^MET concentration: <LLOQ
48 h, 10 mg/kg intravenous, LLOQ 3.00 ng/mL
  mean HHC^MET concentration: <LLOQ
72 h, 10 mg/kg HHC^MET (equivalents), subcutaneous, LLOQ 3.00 ng/mL
  mean HHC^MET concentration: 2.07 ng/mL
72 h, 10 mg/kg intravenous, LLOQ 3.00 ng/mL
  mean HHC^MET concentration: 1.15 ng/mL
96 h, 10 mg/kg HHC^MET (equivalents), subcutaneous, LLOQ 3.00 ng/mL
  mean HHC^MET concentration: <LLOQ
96 h, 10 mg/kg intravenous, LLOQ 3.00 ng/mL
  mean HHC^MET concentration: <LLOQ
168 h, 10 mg/kg HHC^MET (equivalents), subcutaneous, LLOQ 3.00 ng/mL
  mean HHC^MET concentration: <LLOQ
168 h, 10 mg/kg intravenous, LLOQ 3.00 ng/mL
  mean HHC^MET concentration: <LLOQ

— patent US20220305136A1, “ANTI-CTLA4 CONJUGATES” (Ascendis Pharma Oncology Division A/S, priority 2019, published 2022)
